Consider 2 proteins from publication PMC3335857, “Heme Oxygenase Isoforms Differ in Their Subcellular Trafficking during Hypoxia and Are Differentially Modulated by Cytochrome P450 Reductase” (PLoS ONE, 2012).

The series concerns the molecule itself. Description: SEC; 150 µg purified S-HO variant (expressed alone, or full length S-HO co-expressed and co-purified with CPR) on Superdex 200 10/300 GL; 50 mM TEA-HCl, 250 mM NaCl, pH 8.0; peaks blotted with HO antibodies.

B1: Strep-tagged full length heme oxygenase-2 (S-HO-2) (enzyme, human, UniProt P30519 1-316, looked up)
chain: MSAEVETSEGVDESEKKNSGALEKENQMRMADLSELLKEGTKEAHDRAENTQFVKDFLKGNIKKELFKLATTALYFTYSALEEEMERNKDHPAFAPLYFPMELHRKEALTKDMEYFFGENWEEQVQCPKAAQKYVERIHYIGQNEPELLVAHAYTRYMGDLSGGQVLKKVAQRALKLPSTGEGTQFYLFENVDNAQQFKQLYRARMNALDLNMKTKERIVEEANKAFEYNMQIFNELDQAGSTLARETLEDGFPVHDGKGDMRKCPFYAAEQDKGALEGSSCPFRTAMAVLRKPSLQFILAAGVALAAGLLAWYYM
notes: human heme oxygenase 2 (HO-2), cloned from human placenta cDNA, full length; also called full length HO-2; source: Sf9, recombinant baculovirus; not shown: Strep-tag II, N-terminal, kept
With B1, the binding result was “binds”.

B2: Strep-tagged full length heme oxygenase-1 (S-HO-1) (enzyme, human, UniProt P09601 1-288, looked up)
chain: MERPQPDSMPQDLSEALKEATKEVHTQAENAEFMRNFQKGQVTRDGFKLVMASLYHIYVALEEEIERNKESPVFAPVYFPEELHRKAALEQDLAFWYGPRWQEVIPYTPAMQRYVKRLHEVGRTEPELLVAHAYTRYLGDLSGGQVLKKIAQKALDLPSSGEGLAFFTFPNIASATKFKQLYRSRMNSLEMTPAVRQRVIEEAKTAFLLNIQLFEELQELLTHDTKDQSPSRAPGLRQRASNKVQDSAPVETPRGKPPLNTRSQAPLLRWVLTLSFLVATVAVGLYAM
notes: human heme oxygenase 1 (HO-1), cloned from human placenta cDNA, full length; also called full length HO-1; source: Sf9, recombinant baculovirus; not shown: Strep-tag II, N-terminal, kept
In the case of B2, the binding result is listed as “binds”.
